Patent US20120276075

How the values were obtained:
[1] = biological target: NPY 3-36
[2] = biological target: resorufin-labeled casein
[3] = biological target: BSA, P02769
[4] = biological target: bradykinin (…)
[5] = biological target: NPY 1-36 (neuropeptide Y)
[6] = biological target: 33-mer of gliadin

Sequence of BSA, P02769 (P02769 25-607): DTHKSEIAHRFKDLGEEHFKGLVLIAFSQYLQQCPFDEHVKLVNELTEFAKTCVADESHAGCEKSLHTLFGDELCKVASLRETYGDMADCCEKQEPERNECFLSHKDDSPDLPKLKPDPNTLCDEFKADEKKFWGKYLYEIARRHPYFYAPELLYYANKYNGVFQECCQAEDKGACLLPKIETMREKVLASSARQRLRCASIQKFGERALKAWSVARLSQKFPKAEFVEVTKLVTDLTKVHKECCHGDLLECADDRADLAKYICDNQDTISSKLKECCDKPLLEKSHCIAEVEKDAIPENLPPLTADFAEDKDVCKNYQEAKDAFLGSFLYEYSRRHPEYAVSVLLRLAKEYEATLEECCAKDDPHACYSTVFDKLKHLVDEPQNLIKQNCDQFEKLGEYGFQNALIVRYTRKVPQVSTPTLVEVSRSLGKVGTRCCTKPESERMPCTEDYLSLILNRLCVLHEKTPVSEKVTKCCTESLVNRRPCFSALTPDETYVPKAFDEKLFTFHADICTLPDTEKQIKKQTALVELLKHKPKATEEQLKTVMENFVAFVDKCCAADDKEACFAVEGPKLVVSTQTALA

Protein | degradation of the peptide, products detected by mass spectrometry [1] | digestion of the peptide by AfuS28 and SedB added together, acidic pH, mass spectrometry [1] | full length NPY3-36 remaining after 15 min with 1.8 mU of enzyme at 37 C (degradation kinetics, mass spectrometry) [1] | endoproteolytic activity (release of label from resorufin-labeled casein) [2] | proteolysis of a full length protein substrate [3] | degradation of the peptide, products detected by mass spectrometry [4] | degradation of the peptide, products detected by mass spectrometry [5] | degradation of the peptide by AfuS28 + SedB together, 2 hours at 37 C, pH 4 and pH 8, mass spectrometry [6] | digestion of the peptide at acidic pH, mass spectrometry [1] | digestion of the peptide at acidic pH, mass spectrometry [5]
recombinant Aspergillus fumigatus prolyl protease AfuS28, His6-tagged, produced in Pichia pastoris (protein) LMPRAPLIPAMKAKVALPSGNATFEQYIDHNNPGLGTFPQRYWYNPEFWAGPGSPVLLFTPGESDAADYDGFLTNKTIVGRFAEEIGGAVILLEHRYWGASSPYPELTTETLQYLTLEQSIADLVHFAKTVNLPFDEIHSSNADNAPWVMTGGSYSGALAAWTASIAPGTFWAYHASSAPVQAIYDFWQYFVPVVEGMPKNCSKDLNRVVEYIDHVYESGDIERQQEIKEMFGLGALKHFDDFAAAITNGPWLWQDMNFVSGYSRFYKFCDAVENVTPGAKSVPGPEGVGLEKALQGYASWFNSTYLPGSCAEYKYWTDKDAVDCYDSYETNSPIYTDKAVNNTSNKQWTWFLCNEPLFYWQDGAPKDESTIVSRIVSAEYWQRQCHAYFPEVNGYTFGSANGKTAEDVNKWTKGWDLTNTTRLIWANGQFDPWRDASVSSKTRPGGPLQSTEQAPVHVIPGGFHCSDQWLVYGEANAGVQKVIDEEVAQIKAWVAEYPKYRKPHHHHHH | AfuS28 was also found to degrade NPY1-36 and NPY3-36, cleaving after proline residues | AfuS28 and SedB added together degraded NPY3-36 in Y, di- and tri-peptides | Less than 10% of full length NPY3-36 was still present after 15 min incubation | Recombinant AfuS28 showed no detectable proteolytic activity using casein resorufin-labeled as a substrate | AfuS28 does not attack full length protein substrates such as resorufin-labeled casein and BSA | Digestion of bradykinin (RPPGFSPFR, SEQ ID NO:28) resulted in RPP, FR, GFSPFR (SEQ ID NO:35) and PGFSPFR (SEQ ID NO:36) fragments | AfuS28 was also found to degrade NPY1-36 and NPY3-36, cleaving after proline residues | The enzyme composition AfuS28+SedB provides complete degradation of gliadin into several di-, tri-, tetra- and pentapeptides |  | 
recombinant Aspergillus fumigatus sedolisin SedB (tripeptidyl-peptidase), produced in Pichia pastoris (protein) TSTCDQVITPQCLKDLYNIGDYKADPNGGSKVAFASFLEEYARYDDLAKFEEKLAPYAIGQNFSVIQYNGGLNDQNSASDSGEANLDLQYIVGVSSPIPVTEFSTGGRGLLIPDLSQPDPNDNSNEPYLEFLQNVLKMDQDKLPQVISTSYGEDEQTIPEKYARSVCNLYAQLGSRGVSVIFSSGDSGVGAACLTNDGTNRTHFPPQFPAACPWVTSVGGTTKTQPEEAVYFSSGGFSDLWERPSWQDSAVKRYLKKLGPRYKGLYNPKGRAFPDVAAQAENYAVFDKGVLHQFDGTSCSAPAFSAIVALLNDARLRAHKPVMGFLNPWLYSKASKGFNDIVKGGSKGCDGRNRFGGTPNGSPVVPYASWNATDGWDPATGLGTPDFGKLLSLAMRR |  | AfuS28 and SedB added together degraded NPY3-36 in Y, di- and tri-peptides |  |  |  |  |  | The enzyme composition AfuS28+SedB provides complete degradation of gliadin into several di-, tri-, tetra- and pentapeptides | NPY3-36 was not digested by recombinant SedB | this enzyme removed tripeptides (YPS, KPD and NPG) from the N-terminus of NPY1-36 until position 10
